Key:
[1] = target: T1, human PD-L1 expressed on 300.19 cells (human, UniProt Q9NZQ7 19-290); test: semi-quantitative ranking in the binding studies (4th column, p-1058; FACS data, p-1056); high number = poorer binder; the column's head says only 'Rank'
T1 construct: whole, on cells; also called huPD-L1; PD-L1-expressing 300.19 cells

cynomolgus PD-L1 protein = target: T2, cynomolgus PD-L1 protein (cynomolgus, UniProt G7PSE7 19-238); test: Biacore T-100; IgG captured by anti-human Fab on CM5 chip, PD-L1 flowed over (100-1.56 nM), 1:1 fit
T2 construct: also called Monkey PD-L1; cyno PD-L1
T2 sequence (G7PSE7 entry or part of it): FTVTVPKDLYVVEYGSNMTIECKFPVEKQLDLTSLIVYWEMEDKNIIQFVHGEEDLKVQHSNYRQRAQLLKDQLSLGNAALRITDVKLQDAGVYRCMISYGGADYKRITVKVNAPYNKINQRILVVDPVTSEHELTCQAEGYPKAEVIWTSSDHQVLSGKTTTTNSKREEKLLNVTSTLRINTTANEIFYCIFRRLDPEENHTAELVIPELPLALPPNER
Procedure: (§1) Immobilization was done at 25° C. using a flow rate of 10 μl/min. […] Test antibody was captured on Flow cell FC2, FC3 and FC4. […] Run Biacore Wizards Kinetic/Affinity: association time 120 sec, dissociation 600 sec. (Running buffer HBS-EP+BSA 0.25 mg/ml, Regeneration buffer: 10 mM glycine HCl pH 2.1). Data analyses were done with Biacore T-100 Evaluation software version 2, fit on 1:1.

mouse PD-L1 protein = mouse PD-L1 protein (mouse, UniProt Q9EP73 19-238, limits assumed); test: as above
Sequence of mouse PD-L1 protein (Q9EP73 19-238 limits assumed): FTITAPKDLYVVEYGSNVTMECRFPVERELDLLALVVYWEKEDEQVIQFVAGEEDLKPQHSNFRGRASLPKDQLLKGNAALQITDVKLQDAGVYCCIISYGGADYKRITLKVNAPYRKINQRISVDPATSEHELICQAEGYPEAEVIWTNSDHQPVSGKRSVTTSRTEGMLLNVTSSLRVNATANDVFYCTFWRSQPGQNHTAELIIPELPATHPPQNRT
Procedure: as §1

human PD-L1 protein = target: T3, human PD-L1 protein (human, UniProt Q9NZQ7 19-238, limits assumed); test: as above
T3 construct: Construct not described
T3 sequence (Q9NZQ7 19-238 limits assumed): as the sequence (G7PSE7 entry or part of it) above, with T33A, S34A, N62S, Q68R, R82Q, L173F, A185T, I192T, L215H counted along it
Procedure: as §1

rat PD-L1 protein = rat PD-L1 protein (rat, UniProt D4AE25 19-239); test: as above
Sequence of rat PD-L1 protein (D4AE25 entry or part of it limits assumed): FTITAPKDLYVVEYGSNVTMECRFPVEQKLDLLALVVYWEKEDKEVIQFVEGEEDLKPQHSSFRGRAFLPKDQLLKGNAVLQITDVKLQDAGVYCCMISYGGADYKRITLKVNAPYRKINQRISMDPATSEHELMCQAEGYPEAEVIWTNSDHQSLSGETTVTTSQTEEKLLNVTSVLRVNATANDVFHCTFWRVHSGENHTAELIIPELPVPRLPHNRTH
Procedure: as §1

[2] = target: T1, human PD-L1 expressed on 300.19 cells; test: blocking of PE-labelled PD-1-Ig (0.7 µg/mL) binding to PD-L1-expressing 300.19 cells, FACS, 4 C, 4 h
Procedure: (§2) Bound fluorescence was then measured using FACS and IC₅₀ values determined using Prism software.

[3] = target: T1, human PD-L1 expressed on 300.19 cells; test: competition FACS against Alexa 488-labeled murine BAP058 on PD-L1-expressing 300.19 cells
Procedure: (§3) Incubations with the mAb mixtures having different concentration ratios of test mAb to labeled mAb was at 4° C. for 30 min. Bound labeled murine mAb was then quantified using a FACS machine. The experiment was performed twice.

[4] = target: T1, human PD-L1 expressed on 300.19 cells; test: FACS competition; blocking of PE-labelled PD-1-Ig (0.7 ug/mL) on PD-L1-expressing 300.19 cells
Procedure: as §2

[5] = target: T1, human PD-L1 expressed on 300.19 cells; test: FACS competition on PD-L1-expressing 300.19 cells; competitor Alexa 488-labeled murine BAP058
Procedure: as §3

T1 sequence (Q9NZQ7 19-290): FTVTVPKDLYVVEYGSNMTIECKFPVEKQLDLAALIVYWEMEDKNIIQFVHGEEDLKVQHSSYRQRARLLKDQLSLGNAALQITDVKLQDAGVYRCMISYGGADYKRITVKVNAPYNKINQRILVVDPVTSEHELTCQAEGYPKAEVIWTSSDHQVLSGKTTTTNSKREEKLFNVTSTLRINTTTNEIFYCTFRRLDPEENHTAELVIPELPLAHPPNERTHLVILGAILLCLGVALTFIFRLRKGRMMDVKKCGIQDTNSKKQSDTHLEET

B1: BAP058-hum04 (antibody, human IgG4 S228P, kappa, V domains shown)
VH: EVQLVQSGAEVKKPGESLRISCKGSGYTFTSYWMYWVRQAPGQGLEWMGRIDPNSGSTKYNEKFKNRVTISVDTSKNQFSLKLSSVTAADTAVYYCARDYRKGLYAMDYWGQGTTVTVSS
VL: EIVLTQSPDFQSVTPKEKVTITCKASQDVGTAVAWYLQKPGQSPQLLIYWASTRHTGVPSRFSGSGSGTDFTFTISSLQPEDIATYYCQQYNSYPLTFGQGTKVEIKR
notes: Humanized IgG4(S228P)/human kappa mAb expressed in CHO cells
Rank [1]: 3 | Kd (cynomolgus PD-L1 protein): 369 pM | Kd (mouse PD-L1 protein): 77400 pM | Kd (human PD-L1 protein): 2140 pM | Kd (rat PD-L1 protein): 6140 pM | IC50 (read off the curve) [2]: ~0.04 µg/mL | Comp. binding (ratio conc. test mAb / conc. labelled murine BAP058 at the IC50) [3]: 1.13

B2: BAP058-hum11 (antibody, human IgG4 S228P, kappa, V domains shown)
VH: EVQLVQSGAEVKKPGATVKISCKVSGYTFTSYWMYWVRQATGQGLEWMGRIDPNSGSTKYNEKFKNRVTITADKSTSTAYMELSSLRSEDTAVYYCARDYRKGLYAMDYWGQGTTVTVSS
VL: DVVMTQSPLSLPVTLGQPASISCKASQDVGTAVAWYQQKPGQAPRLLIYWASTRHTGVPSRFSGSGSGTEFTLTISSLQPDDFATYYCQQYNSYPLTFGQGTKVEIKR
notes: as for B1
Rank [1]: 4 | Kd (cynomolgus PD-L1 protein): 735 pM | Kd (mouse PD-L1 protein): 75 pM | Kd (human PD-L1 protein): 931 pM | Kd (rat PD-L1 protein): 1360 pM | IC50 (read off the curve) [2]: ~0.04 µg/mL | Comp. binding (ratio conc. test mAb / conc. labelled murine BAP058 at the IC50) [3]: 1.3

B3: BAP058-hum13 (antibody, human IgG4 S228P, kappa, V domains shown)
VH: EVQLVQSGAEVKKPGATVKISCKVSGYTFTSYWMYWVRQARGQRLEWIGRIDPNSGSTKYNEKFKNRFTISRDNSKNTLYLQMNSLRAEDTAVYYCARDYRKGLYAMDYWGQGTTVTVSS
VL: AIQLTQSPSSLSASVGDRVTITCKASQDVGTAVAWYLQKPGQSPQLLIYWASTRHTGVPSRFSGSGSGTDFTFTISSLEAEDAATYYCQQYNSYPLTFGQGTKVEIKR
notes: as for B1
Rank [1]: 2 | Kd (cynomolgus PD-L1 protein): 431 pM | Kd (mouse PD-L1 protein): 40 pM | Kd (human PD-L1 protein): 137 pM | Kd (rat PD-L1 protein): 431 pM | IC50 (read off the curve) [2]: ~0.04 µg/mL | Comp. binding (ratio conc. test mAb / conc. labelled murine BAP058 at the IC50) [3]: 2.91

B4: murine anti-PD-L1 monoclonal antibody BAP058 (antibody, V domains shown)
VH: QVHLQQPGAELVKPGASVKLSCKASGYTFTSYWMYWVKQGPGRGLEWIGRIDPNSGSTKYNEKFKNKATLTVDKSSSTAYMQLSSLTSEDSAVYYCARDYRKGLYAMDYWGQGTSVTVSS
VL: DIVMTQSHKFMSTSVGDRVSITCKASQDVGTAVAWYQQKPGQSPKLLIYWASTRHTGVPDRFTGSGSGTDFTLTISNVQSEDLADYFCQQYNSYPLTFGAGSKLELK
notes: Murine mAb; also called murine mAb BAP058; murine parent mAb
IC50 [4]: 300 pM | ratio for the IC50 value (concentration of test mAb over labelled murine BAP058) [5]: 1.34

From patent US20160108123A1 (Novartis, published 2016)
